The labels stand for the following.
B1: CPEB3 Ribozyme (parent)
chain: GGGGGCCACAGCAGAAGCGUUCACGUCGCGGCCCCUGUCAGAUUCUGGUGAAUCUGCGAAUUCUGCUGU

In the series the parent is B1. As to the kind of experiment: self-cleavage, relative activity (ratio to wild type); higher = more cleavage; co-transcriptional.
Regarding GGGGGCAACAGCAGAAGCGUUCACGUCGCGGCCCCUGUCACAUUCUGGUGAAUCUGCGAAUUCUGCUGU, the self-cleavage came to 0.146. Next, GGGGGCAACAGCAGAAGCGUUCACGUCGCGGCCCCUGUCAGACUCUGGUGAAUCUGCGAAUUCUGCUGU: 0.388; GGGGGCAACAGCAGAAGCGUUCACGUCGCGGCCCCUGUCAGAUUCUGGUGAAUCUGCGAAUUCUGCUAU: 0.984; GGGGGCAACAGCAGAAGCGUUCACGUCGCGGCCCCUGUCAGAUUCUGGUGAAUCUGCGAAUUCUGCUUU: 0.937. Consider GGGGGCAACAGCAGAAGCGUCCACGUCGCGGCCCCUGUCAGAUUCUGGUGAAUCUGCGAAUUCUGCUGU, for which the self-cleavage stood at 0.266.

Regarding GGGGGCAACAGCAGAAGCGUGCACGUCGCGGCCCCUGUCAGAUUCUGGUGAAUCUGCGAAUUCUGCUGU, the self-cleavage was 0.077. Consider GGGGGCAACAGCAGAAGCGUACACGUCGCGGCCCCUGUCAGAUUCUGGUGAAUCUGCGAAUUCUGCUGU, for which the self-cleavage came out at 0.576. As to GGGGGCAACAGCAGAAGCGUUCACGUCGCGGCCCCUGUCAGAUUCUGGUGAAUCUGCAAAUUCUGCUGU, the self-cleavage amounted to 0.338.

With GGGGGCAACAGCAGAAGCGUUCACGUCGCGGCCCCUGUCAGAUUCUGGUGAAUCUGCUAAUUCUGCUGU, the self-cleavage worked out at 0.645. Next, GGGGGCAACAGCAGAAGCGUUCACGUCGCGGCCCCUGUCAGAUUCUGGUUAAUCUGCGAAUUCUGCUGU: 0.54. Next, GGGGGCAACAGCAGAAGCGUUCACGUCGCGGCCCCUGUCAGAUUCUGGUAAAUCUGCGAAUUCUGCUGU: 0.617. The same measure for GGGGGCAACAGCAGAAGCGUUCACGUCGCGGCCCCUGUCAGAUUCUGGUGAAUCUGCGAAUUCUACUGU: 0.496. Regarding GGGGGCAACAGCAGAAGCGUUCACGUCGCGGCCCCUGUCAGAUUCUGGUGAAUCUGCGAAUUCUUCUGU, the self-cleavage turned out to be 0.198. Next, GGGGGCAACAGCAGAAGCGUUCACGUCGCGGCCCCUGUCAGAUUCUGGUGAAUCUGCGAAUUCUCCUGU: 0.314; GGGGGCAACAGCAGAAGCGCUCACGUCGCGGCCCCUGUCAGAUUCUGGUGAAUCUGCGAAUUCUGCUGU: 0.211. The same measure for GGGGGCAACAGCAGAAGCGAUCACGUCGCGGCCCCUGUCAGAUUCUGGUGAAUCUGCGAAUUCUGCUGU: 0.0917; for GGGGGCAACAGCAGAAGCGGUCACGUCGCGGCCCCUGUCAGAUUCUGGUGAAUCUGCGAAUUCUGCUGU: 0.127; for GGGGGCAACAGCAGAAGCGUUCACGUCGCGGCCCCUGUCAGAUCCUGGUGAAUCUGCGAAUUCUGCUGU: 0.432.

For GGGGGCAACAGCAGAAGCGUUCACGUCGCGGCCCCUGUCAGAUGCUGGUGAAUCUGCGAAUUCUGCUGU, the self-cleavage amounted to 0.305. As to GGGGGCAACAGCAGAAGCGUUCACGGCGCGGCCCCUGUCAGAUUCUGGUGAAUCUGCGAAUUCUGCUGU, the self-cleavage worked out at 0.274. Next, GGGGGCAACAGCAGAAGCGUUCACGCCGCGGCCCCUGUCAGAUUCUGGUGAAUCUGCGAAUUCUGCUGU: 0.357; GGGGGCAACAGCAGAAGCGUUCACGUCGCGGCCCCUGUCAGAUUCUGAUGAAUCUGCGAAUUCUGCUGU: 0.67.

Regarding GGGGGCAACAGCAGAAGCGUUCACGUCGCGGCCCCUGUCAGAUUCUGUUGAAUCUGCGAAUUCUGCUGU, the self-cleavage was 0.696. On to GGGGGCAACAGCAGAAGCGUUCACGUCGCGGCCCCUGUCAGAUUCUGGUGAAUCUACGAAUUCUGCUGU, for which the self-cleavage worked out at 0.34.

Turning to GGGGGCAACAGCAGAAGCGUUCACGUCGCGGCCCCUGUCAGAUUCUGGUGAAUCUCCGAAUUCUGCUGU, the self-cleavage was determined as 0.243. The same measure for GGGGGCAACAGCAGAAGCGUUCACGUCGCGGCCCCUGUCAGAUUCCGGUGAAUCUGCGAAUUCUGCUGU: 0.587; for GGGGGCAACAGCAGAAGCGUUCACGUCGCGGCCCCGGUCAGAUUCUGGUGAAUCUGCGAAUUCUGCUGU: 0.205. As to GGGGGCAACAGCAGAAGCGUUCACGUCGCGGCCCCCGUCAGAUUCUGGUGAAUCUGCGAAUUCUGCUGU, the self-cleavage was 0.223.

As to GGGGGCAACAGCAGAAGCGUUCACGUCCCGGCCCCUGUCAGAUUCUGGUGAAUCUGCGAAUUCUGCUGU, the self-cleavage was 0.11. The same measure for GGGGGCAACAGCAGAAGCGUUCACGUCACGGCCCCUGUCAGAUUCUGGUGAAUCUGCGAAUUCUGCUGU: 0.128.

As to GGGGGCAACAGCAGAAGCGUUCACGUCUCGGCCCCUGUCAGAUUCUGGUGAAUCUGCGAAUUCUGCUGU, the self-cleavage turned out to be 0.128. The same measure for GGGGGCAACAGCAGAAGCGUUCACGUCGCGCCCCCUGUCAGAUUCUGGUGAAUCUGCGAAUUCUGCUGU: 0.159. Regarding GGGGGCAACAGCAGAAGCGUUCACGUCGCGACCCCUGUCAGAUUCUGGUGAAUCUGCGAAUUCUGCUGU, the self-cleavage was 0.499. Next, GGGGGCAACAGCAGAAGCGUUCACUUCGCGGCCCCUGUCAGAUUCUGGUGAAUCUGCGAAUUCUGCUGU: 0.111; GGGGGCAACAGCAGAAGCGUUCACGUCGCGGCCCCUGCCAGAUUCUGGUGAAUCUGCGAAUUCUGCUGU: 0.221; GGGGGCAACAGCAGAAGCGUUCACGUCGCGGCCCCUGACAGAUUCUGGUGAAUCUGCGAAUUCUGCUGU: 0.191. Next, GGGGGCAACAGCAGAAGCGUUCACGUCGCCGCCCCUGUCAGAUUCUGGUGAAUCUGCGAAUUCUGCUGU: 0.661. In the case of GGGGGCAACAGCAGAAGCGUUCACGUCGCAGCCCCUGUCAGAUUCUGGUGAAUCUGCGAAUUCUGCUGU, the self-cleavage turned out to be 0.826.

On to GGGGGCAACAGCAGAAGCGUUCACGUCGCUGCCCCUGUCAGAUUCUGGUGAAUCUGCGAAUUCUGCUGU, for which the self-cleavage was determined as 0.9.

The record behind these values is the RNAGym collection of RNA variant scans (doi:10.7554/elife.80360).
